The text below walks through data of paper PMC6294510.

Read-outs that look alike come from different tables or passages of the source.

The target of data set [1] is T1, ARTD2WGR (Homo sapiens, UniProt Q9UGN5 90-218). As to the kind of experiment: X-ray crystallography.
For a further data set, the target named is ARTD2FL W151A (Homo sapiens, UniProt Q9UGN5 1-583, W151A). As to the kind of experiment: SPR.
Another data set concerns the target ARTD2FL K179A (Homo sapiens, UniProt Q9UGN5 1-583, K179A). Kind of data set: SPR. (In general: In SPR one partner is held on a chip, and binding of the other changes the refractive index at the surface.)
The target of the next data set is ARTD2FL R153A (Homo sapiens, UniProt Q9UGN5 1-583, R153A). As to the kind of experiment: SPR.
In a further data set the target is ARTD2FL N127A (Homo sapiens, UniProt Q9UGN5 1-583, N127A). Kind of data set: SPR.
The target in the next data set is ARTD2FL K183A (Homo sapiens, UniProt Q9UGN5 1-583, K183A). As to the kind of experiment: SPR.
For a further data set, the target named is ARTD2FL Y201F (Homo sapiens, UniProt Q9UGN5 1-583, Y201F). As to the kind of experiment: SPR.
Data set [2] concerns the target T2, ARTD2FL WT (Homo sapiens, UniProt Q9UGN5 1-583). Kind of data set: EMSA. A general note: In EMSA bound probe runs differently from free probe, usually more slowly.
In data set [3] the target is T1, ARTD2WGR. Kind of data set: X-ray crystallography. The source holds these as a separate data set.
Data set [4] has as its target T3, ARTD2WGR+CAT (Homo sapiens, UniProt Q9UGN5 90-583). As to the kind of experiment: SEC-SLS.
Data set [5] concerns the target T2, ARTD2FL WT. As to the kind of experiment: ITC.
In data set [6] the target is T3, ARTD2WGR+CAT. Kind of data set: SEC-SLS. This is another data set of the same source.
Data set [7] deals with T2, ARTD2FL WT. As to the kind of experiment: SEC-SLS.
For data set [8], the target named is T1, ARTD2WGR. As to the kind of experiment: X-ray crystallography. This is another data set of the same source.

T1 sequence (Q9UGN5 90-218): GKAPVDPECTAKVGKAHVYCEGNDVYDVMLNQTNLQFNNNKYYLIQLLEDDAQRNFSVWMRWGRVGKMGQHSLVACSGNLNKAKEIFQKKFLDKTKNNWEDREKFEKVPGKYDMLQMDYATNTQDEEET
T2 sequence (Q9UGN5 whole entry): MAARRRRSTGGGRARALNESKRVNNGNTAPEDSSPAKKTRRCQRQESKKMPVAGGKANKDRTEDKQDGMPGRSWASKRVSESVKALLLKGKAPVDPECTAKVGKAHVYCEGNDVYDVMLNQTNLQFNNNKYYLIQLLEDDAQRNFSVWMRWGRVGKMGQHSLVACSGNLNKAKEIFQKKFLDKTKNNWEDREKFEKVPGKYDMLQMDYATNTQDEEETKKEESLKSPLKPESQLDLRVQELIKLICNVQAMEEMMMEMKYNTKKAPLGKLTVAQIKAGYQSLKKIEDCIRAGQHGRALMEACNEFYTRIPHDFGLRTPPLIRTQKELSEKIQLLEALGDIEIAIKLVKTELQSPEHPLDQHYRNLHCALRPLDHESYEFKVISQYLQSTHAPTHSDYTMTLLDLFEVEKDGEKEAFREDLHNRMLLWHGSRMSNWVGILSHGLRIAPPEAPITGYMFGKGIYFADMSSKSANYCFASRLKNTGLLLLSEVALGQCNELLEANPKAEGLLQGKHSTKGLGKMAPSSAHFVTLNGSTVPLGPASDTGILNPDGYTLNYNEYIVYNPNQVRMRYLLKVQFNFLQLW
T3 sequence (Q9UGN5 90-583): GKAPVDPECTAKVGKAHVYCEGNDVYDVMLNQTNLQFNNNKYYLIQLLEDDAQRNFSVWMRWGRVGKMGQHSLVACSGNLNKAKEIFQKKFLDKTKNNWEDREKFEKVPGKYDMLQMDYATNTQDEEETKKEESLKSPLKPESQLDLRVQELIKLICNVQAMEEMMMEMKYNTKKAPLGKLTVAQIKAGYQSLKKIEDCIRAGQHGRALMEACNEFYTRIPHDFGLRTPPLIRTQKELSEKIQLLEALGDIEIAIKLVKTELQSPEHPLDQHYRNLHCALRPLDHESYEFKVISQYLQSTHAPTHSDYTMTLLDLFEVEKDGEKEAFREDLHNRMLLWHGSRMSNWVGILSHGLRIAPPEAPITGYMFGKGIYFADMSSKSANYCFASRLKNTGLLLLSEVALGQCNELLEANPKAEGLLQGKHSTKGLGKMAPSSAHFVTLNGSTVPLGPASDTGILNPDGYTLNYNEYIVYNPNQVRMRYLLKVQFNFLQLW
Sequence of ARTD2FL K183A (Q9UGN5 whole entry K183A): as the sequence (Q9UGN5 whole entry) above, with K183A counted along it
Sequence of ARTD2FL N127A (Q9UGN5 whole entry N127A): as the sequence (Q9UGN5 whole entry) above, with N127A counted along it
Sequence of ARTD2FL Y201F (Q9UGN5 whole entry Y201F): as the sequence (Q9UGN5 whole entry) above, with Y201F counted along it
Sequence of ARTD2FL R153A (Q9UGN5 whole entry R153A): as the sequence (Q9UGN5 whole entry) above, with R153A counted along it
Sequence of ARTD2FL K179A (Q9UGN5 whole entry K179A): as the sequence (Q9UGN5 whole entry) above, with K179A counted along it
Sequence of ARTD2FL W151A (Q9UGN5 whole entry W151A): as the sequence (Q9UGN5 whole entry) above, with W151A counted along it

B1: DNA-9 (dsDNA)
DNA 1: CGGTCGCCTATAGGC
DNA 2: CGGTCGCCTATAGGC
modifications: 5'-phosphate on both strands
As to B1, in the data set with ARTD2WGR [1], the binding result was “binds”.

B2: DNA-12 (dsDNA)
DNA 1: GCAGCATGGCGGAGTTCACA
DNA 2: TGTGAACTCCGCCATGCTGC
modifications: 5'-phosphate on forward strand
In the case of B2, the binding result with ARTD2FL W151A, in the data set with ARTD2FL K179A, with ARTD2FL R153A, with ARTD2FL N127A, with ARTD2FL K183A and in the data set with ARTD2FL Y201F was “no binding” in each case.

For GGAAGTTCTTTTGAACTTCCGCGAAGCTTTTGCTTCGC (structured_DNA, 5'-phosphate) [DNA-2 nicked dumbbell], the binding result with ARTD2FL WT [2] is “binds”.

B3: DNA-5 (dsDNA)
DNA 1: GCCTATAGGC
DNA 2: GCCTATAGGC
modifications: 5'-phosphate on both strands
On to B3, for which the binding result in the data set with ARTD2WGR [3] is listed as “binds”.

As for GGGTCTTTTGACCCTCGAGCTTTTGCTCGA (structured_DNA, 5'-phosphate) [DNA-1 nicked hairpin], the binding result with ARTD2WGR+CAT [4] and with ARTD2FL WT [5] was “binds” each time.

B4: DNA-13 (dsDNA)
DNA 1: GACGCAACCCGGAGAACACA
DNA 2: TGTGTTCTCCGGGTTGCGTC
modifications: 5'-phosphate on forward strand
On to B4, for which the binding result with ARTD2WGR+CAT [6] and with ARTD2FL WT [7] was “binds” throughout.

B5: DNA-6 (dsDNA)
DNA 1: GCCTAGCTACGTAGCTAGGC
DNA 2: GCCTAGCTACGTAGCTAGGC
B5: the binding result with ARTD2WGR [8] was “binds”.

For the molecule GGAAGTTCTTTTGAACTTCC (structured_DNA) [DNA-3 blunt hairpin], the binding result in the data set with ARTD2FL WT [5] was “binds”.
